Data as given in patent US20050260733.

T1: α-2 macroglobulin
T1 sequence (P01023 24-1474, species assumed, looked up): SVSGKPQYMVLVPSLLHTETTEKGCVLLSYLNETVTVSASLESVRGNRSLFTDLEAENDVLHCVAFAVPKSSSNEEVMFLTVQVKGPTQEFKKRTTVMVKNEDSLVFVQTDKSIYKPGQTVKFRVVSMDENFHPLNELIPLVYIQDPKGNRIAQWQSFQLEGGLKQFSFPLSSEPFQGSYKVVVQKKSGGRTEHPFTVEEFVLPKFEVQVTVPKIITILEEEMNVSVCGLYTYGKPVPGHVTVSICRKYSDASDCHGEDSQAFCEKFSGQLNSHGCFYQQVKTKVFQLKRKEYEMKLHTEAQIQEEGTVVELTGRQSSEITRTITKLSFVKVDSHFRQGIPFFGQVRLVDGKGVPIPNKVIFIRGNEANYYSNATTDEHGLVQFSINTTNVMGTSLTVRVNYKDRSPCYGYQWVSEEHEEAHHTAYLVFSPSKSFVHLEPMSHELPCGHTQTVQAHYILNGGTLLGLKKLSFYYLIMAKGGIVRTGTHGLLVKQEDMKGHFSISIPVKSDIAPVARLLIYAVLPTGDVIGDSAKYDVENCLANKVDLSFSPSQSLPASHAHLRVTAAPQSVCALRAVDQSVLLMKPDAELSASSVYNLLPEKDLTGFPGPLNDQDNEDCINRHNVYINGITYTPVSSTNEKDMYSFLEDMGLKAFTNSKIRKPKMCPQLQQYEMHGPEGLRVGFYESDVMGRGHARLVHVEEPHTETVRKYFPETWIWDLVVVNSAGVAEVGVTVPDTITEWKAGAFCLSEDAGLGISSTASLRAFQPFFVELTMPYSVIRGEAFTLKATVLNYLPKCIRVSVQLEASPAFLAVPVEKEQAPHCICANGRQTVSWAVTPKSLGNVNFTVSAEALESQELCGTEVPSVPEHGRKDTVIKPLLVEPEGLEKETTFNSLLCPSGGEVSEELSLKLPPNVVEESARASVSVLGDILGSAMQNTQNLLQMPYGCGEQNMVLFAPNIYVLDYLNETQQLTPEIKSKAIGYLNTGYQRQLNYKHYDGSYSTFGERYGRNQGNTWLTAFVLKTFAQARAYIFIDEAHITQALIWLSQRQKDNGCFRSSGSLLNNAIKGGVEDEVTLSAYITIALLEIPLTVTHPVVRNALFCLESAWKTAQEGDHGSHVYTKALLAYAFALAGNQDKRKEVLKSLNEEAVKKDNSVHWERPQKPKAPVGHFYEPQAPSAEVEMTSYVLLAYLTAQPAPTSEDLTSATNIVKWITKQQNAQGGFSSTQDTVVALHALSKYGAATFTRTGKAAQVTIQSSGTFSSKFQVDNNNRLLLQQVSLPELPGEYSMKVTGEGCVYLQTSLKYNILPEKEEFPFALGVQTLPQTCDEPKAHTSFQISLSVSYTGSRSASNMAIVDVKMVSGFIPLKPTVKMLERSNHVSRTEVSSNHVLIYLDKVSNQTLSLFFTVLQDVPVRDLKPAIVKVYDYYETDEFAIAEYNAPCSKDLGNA

B1: recombinant human ADAMTS-8 with C-terminal Strep-tag (protein)
chain: RFVSEARFVETLLVADASMAAFYGADLQNHILTLMSVAARIYKHPSIKNSINLMVVKVLIVEDEKWGPEVSDNGGLTLRNFCNWQRRFNQPSDRHPEHYDTAILLTRQNFCGQEGLCDTLGVADIGTICDPNKSCSVIEDEGLQAAHTLAHELGHVLSMPHDDSKPCTRLFGPMGKHHVMAPLFVHLNQTLPWSPCSAMYLTELLDGGHGDCLLDAPRAALPLPTGLPGRMALYQLDQQCRQIFGPDFRHCPNTSAQDVCAQLWCHTDGAEPLCHTKNGSLPWADGTPCGPGHLCSEGSCLPEEEVERPKPVADGGWAPWGPWGECSRTCGGGVQFSHRECKDPEPQNGGRYCLGRRAKYQSCHTEECPPDGKSFREQQCEKYNAYNYTDMDGNLLQWVPKYAGVSPRDRCKLFCRARGRSEFKVFEAKVIDGTLCGPETLAICVRGQCVKAGCDHVVDSPRKLDKCGVCGGKGNSCRKVSGSLTPTNYGYNDIVTIPAGATNIDVKQRSHPGVQNDGNYLALKTADGQYLLNGNLAISAIEQDILVKGTILKYSGSIATLERLQSFRPLPEPLTVQLLTVPGEVFPPKVKYTFFVPNDVDFSMQSSKERATTNIIQPLLHAQWVLGDWSECSSTCGAGWQRRTVECRDPSGQASATCNKALKPEDAKPCESQLCPLGSGSAWSHPQFEK
B2: recombinant C-terminally truncated ADAMTS-8 (protein)
chain: MLPAPAAPRWPPLLLLLLLLLLPLARGAPARPAAGGQASELVVPTRLPGSAGELALHLSAFGKGFVLRLAPDDSFLAPEFKIERLGGSGRATGGERGLRGCFFSGTVNGEPESLAAVSLCRGLSGSFLLDGEEFTIQPQGAGGSLAQPHRLQRWGPAGARPLPRGPEWEVETGEGQRQERGDHQEDSEEESQEEEAEGASEPPPPLGATSRTKRFVSEARFVETLLVADASMAAFYGADLQNHILTLMSVAARIYKHPSIKNSINLMVVKVLIVEDEKWGPEVSDNGGLTLRNFCNWQRRFNQPSDRHPEHYDTAILLTRQNFCGQEGLCDTLGVADIGTICDPNKSCSVIEDEGLQAAHTLAHELGHVLSMPHDDSKPCTRLFGPMGKHHVMAPLFVHLNQTLPWSPCSAMYLTELLDGGHGDCLLDAPRAALPLPTGLPGRMALYQLDQQCRQIFGPDFRHCPNTSAQDVCAQLWCHTDGAEPLCHTKNGSLPWADGTPCGPGHLCSEGSCLPEEEVERPKPVADGGWAPWGPWGECSRTCGGGVQFSHRECKDPEPQNGGRYCLGRRAKYQSCHTEECPPDGKSFREQQCEKYNAYNYTDMDGNLLQWVPKYAGVSPRDRCKLFCRARGRSEFKVFEAKVIDGTLCGPETLAICVRGQCVKAGCDHVVDSPRKLDKCGVCGGKGNSCRKVSGSLTPTNYGYNDIVTIPAGATNIDVKQRSHPGVQNDGNYLALKTADGQYLLNGNLAISAIEQDILVKGTILKYSGSIATLERLQSFRPLPEPLTVQLLTVPGEVFPPKVKYTFFVPNDVDFSMQSSKERATTNIIQPLLHAQWVLGDWSECSSTCGAGWQRRTVECRDPSGQASATCNKALKPEDAKPCESQLCPL

Columns and labels:
[1] = target: undigested bovine aggrecan, P13608
Chain of undigested bovine aggrecan, P13608 (P13608 20-2364): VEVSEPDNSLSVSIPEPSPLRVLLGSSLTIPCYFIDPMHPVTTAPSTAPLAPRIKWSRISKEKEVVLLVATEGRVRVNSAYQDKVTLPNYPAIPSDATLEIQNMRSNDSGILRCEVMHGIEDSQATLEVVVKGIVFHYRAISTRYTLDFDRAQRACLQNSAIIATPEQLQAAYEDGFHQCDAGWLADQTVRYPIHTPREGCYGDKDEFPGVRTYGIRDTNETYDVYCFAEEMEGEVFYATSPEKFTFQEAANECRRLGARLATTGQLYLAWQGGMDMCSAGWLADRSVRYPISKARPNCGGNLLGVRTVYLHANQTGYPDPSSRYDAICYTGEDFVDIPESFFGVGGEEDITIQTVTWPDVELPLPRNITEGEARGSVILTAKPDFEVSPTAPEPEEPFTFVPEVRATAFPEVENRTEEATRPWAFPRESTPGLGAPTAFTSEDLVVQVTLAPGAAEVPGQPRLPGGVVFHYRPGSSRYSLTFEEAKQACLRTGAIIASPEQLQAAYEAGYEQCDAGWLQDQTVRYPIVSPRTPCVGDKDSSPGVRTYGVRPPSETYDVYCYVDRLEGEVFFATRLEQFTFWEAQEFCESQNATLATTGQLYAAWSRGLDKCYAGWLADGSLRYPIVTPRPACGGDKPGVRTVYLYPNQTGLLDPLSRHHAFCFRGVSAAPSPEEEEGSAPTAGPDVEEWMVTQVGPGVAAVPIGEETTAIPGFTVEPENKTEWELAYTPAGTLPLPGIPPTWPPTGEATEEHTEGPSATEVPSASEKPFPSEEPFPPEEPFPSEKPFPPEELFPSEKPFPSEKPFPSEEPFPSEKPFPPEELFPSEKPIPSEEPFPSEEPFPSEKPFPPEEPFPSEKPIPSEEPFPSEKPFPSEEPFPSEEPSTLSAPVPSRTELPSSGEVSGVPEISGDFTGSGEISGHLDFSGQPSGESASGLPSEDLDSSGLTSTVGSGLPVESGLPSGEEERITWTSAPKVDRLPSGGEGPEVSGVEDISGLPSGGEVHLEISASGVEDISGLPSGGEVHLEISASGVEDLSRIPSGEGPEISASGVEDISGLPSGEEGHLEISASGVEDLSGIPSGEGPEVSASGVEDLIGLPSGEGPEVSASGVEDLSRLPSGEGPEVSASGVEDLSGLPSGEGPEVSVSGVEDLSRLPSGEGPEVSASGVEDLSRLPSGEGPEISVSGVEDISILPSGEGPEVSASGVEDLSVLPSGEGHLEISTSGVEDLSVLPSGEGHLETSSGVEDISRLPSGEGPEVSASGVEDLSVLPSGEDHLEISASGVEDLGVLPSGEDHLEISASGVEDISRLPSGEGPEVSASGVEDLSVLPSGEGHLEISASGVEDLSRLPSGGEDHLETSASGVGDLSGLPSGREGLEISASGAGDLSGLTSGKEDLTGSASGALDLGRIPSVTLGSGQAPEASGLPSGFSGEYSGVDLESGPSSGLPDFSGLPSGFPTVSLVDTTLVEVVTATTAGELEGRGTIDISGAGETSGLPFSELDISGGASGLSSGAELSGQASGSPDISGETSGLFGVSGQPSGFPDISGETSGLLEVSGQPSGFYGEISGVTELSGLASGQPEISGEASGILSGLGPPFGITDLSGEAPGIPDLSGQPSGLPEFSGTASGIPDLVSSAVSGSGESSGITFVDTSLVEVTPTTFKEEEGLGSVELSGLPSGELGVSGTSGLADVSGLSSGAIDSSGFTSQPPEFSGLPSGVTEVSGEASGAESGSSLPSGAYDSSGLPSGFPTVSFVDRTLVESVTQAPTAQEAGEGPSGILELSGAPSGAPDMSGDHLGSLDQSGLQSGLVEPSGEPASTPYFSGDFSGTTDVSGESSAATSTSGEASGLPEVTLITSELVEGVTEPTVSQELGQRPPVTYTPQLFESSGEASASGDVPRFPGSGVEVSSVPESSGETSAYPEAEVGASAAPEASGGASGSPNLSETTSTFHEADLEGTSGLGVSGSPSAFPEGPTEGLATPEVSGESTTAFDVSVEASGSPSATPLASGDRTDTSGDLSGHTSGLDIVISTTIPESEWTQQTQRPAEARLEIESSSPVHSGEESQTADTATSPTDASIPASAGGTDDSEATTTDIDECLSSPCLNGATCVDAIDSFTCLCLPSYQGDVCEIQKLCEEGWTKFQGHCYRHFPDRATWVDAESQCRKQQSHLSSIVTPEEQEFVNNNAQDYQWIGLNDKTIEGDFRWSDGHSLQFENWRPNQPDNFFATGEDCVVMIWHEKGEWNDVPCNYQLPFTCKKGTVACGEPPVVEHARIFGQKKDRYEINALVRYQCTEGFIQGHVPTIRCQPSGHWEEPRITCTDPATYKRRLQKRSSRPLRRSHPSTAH

α-2 macroglobulin = target: T1, α-2 macroglobulin

| Protein | aggrecan cleavage seen by neoepitope Western blot [1] | lowest enzyme:substrate ratio at which cleavage is detected by Western blot [1] | aggrecan cleavage by AGG-C1 Western blotting [1] | α2-macroglobulin assay (α-2 macroglobulin) |
| --- | --- | --- | --- | --- |
| B1 | MAb BC-3 immunoreactive bands increased in intensity with increasing amounts of ADAMTS-8 protein relative to aggrecan substrate | cleavage of bovine articular cartilage aggrecan by ADAMTS-8 at an enzyme:substrate ratio of 1:0.5 using the BC-3 neoepitope MAb ... can be readily detected |  |  |
| B2 |  |  | it seemed to be no more active than full-length recombinant ADAMTS-8 on aggrecan substrate as judged by AGG-C1 Western blotting | the purified protein was active as judged by α2-macroglobulin assay |
